The conditions of data set [1]: cited from earlier work.
The target in a further data set is T1, GIPR (Homo sapiens, UniProt P48546).
T1 sequence (P48546 22-466): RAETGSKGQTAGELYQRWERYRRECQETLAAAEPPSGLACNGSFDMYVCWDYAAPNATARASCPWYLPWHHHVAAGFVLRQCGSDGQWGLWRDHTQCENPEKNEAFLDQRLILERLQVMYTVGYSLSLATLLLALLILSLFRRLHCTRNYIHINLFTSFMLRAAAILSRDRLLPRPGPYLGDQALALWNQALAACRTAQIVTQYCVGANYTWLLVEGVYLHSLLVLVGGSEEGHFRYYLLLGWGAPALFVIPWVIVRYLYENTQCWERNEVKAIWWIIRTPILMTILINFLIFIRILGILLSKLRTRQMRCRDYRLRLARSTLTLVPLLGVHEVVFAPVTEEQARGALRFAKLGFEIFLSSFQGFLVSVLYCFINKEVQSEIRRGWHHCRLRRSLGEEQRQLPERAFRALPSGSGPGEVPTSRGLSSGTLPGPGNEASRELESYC
Conditions: cited from earlier work.

Data set [2] can be described thus: Immunogenicity test, antibody titre by direct ELISA, Example 6. The class given is in vivo, mouse (Balb/c). Conditions: 30 nmol/kg daily for 28 days, serum on day 45. (In general: ELISA stands for enzyme-linked immunosorbent assay.)
For data set [3] the following is noted: human, in vivo; cited from earlier work.

As to GLP-1 [天然GLP-1], in data set [1], the Half-life in vivo is reported as ~2 分钟.
Take Glucagon [C001]: the GIPR agonist activity result with GIPR is “没有GIPR激动活性”. The Immunogenicity in vivo result in data set [2] was “极低”.
Consider Taspoglutide, for which the Antibody formation rate in data set [3] was 49 %.

Source of the values: patent publication CN109836488A, “一种治疗代谢疾病的胰高血糖素类似物” (Zhejiang Doer Biologics Co Ltd, priority 2017, dated 2019).
